Article PMC2909203, “Defining the Functional Domain of Programmed Cell Death 10 through Its Interactions with Phosphatidylinositol-3,4,5-Trisphosphate” (PLoS ONE, 2010)

B1: Recombinant murine 6xHis-PDCD10 Δ5KA mutant (K169A, K172A, K179A, K183A, K186A) (natural protein)
chain: not shown
notes: PDCD10 (CCM3), murine, full length, with five K-to-A mutations made by site-directed mutagenesis; Dimer in solution by SEC-MALS; also called Δ5KA PDCD10; mutant Δ5KA ccm3; source: E. coli BL21DE3, purified; not shown: 6xHis, N-terminal, kept
B2: Recombinant murine 6xHis-PDCD10, wild type (natural protein)
chain: not shown
notes: PDCD10 (CCM3), murine, full length, amplified from a mouse fibroblast cDNA library and cloned into pMCSG7-His; 212 amino acids; Dimer in solution by SEC-MALS; also called CCM3; WT; not shown: 6xHis, N-terminal, kept

Molecular target: the molecule itself
Assay: SEC-MALS; 0.2 to 0.4 mg/ml purified His-tag protein in 10 mM phosphate buffer, pH 7.0, 500 mM NaCl; self-association, dimer the only species

| Protein | stoichiometry N |
| --- | --- |
| B1 | 2 |
| B2 | 2 |
